# According to US20240376214A1, “ANTI-C-MET ANTIBODIES AND ANTIBODY-DRUG CONJUGATES” (BYONDIS B.V., priority 2021, published 2024):
# Positions count from the first letter of the chain named.
# B1: ADC1 (antibody, human IgG1, kappa, V domains shown)
# VH: EVQLQQSGPELLKPGASVKMSCKASGYIFTDYFMNWVKQSCGKSLEWIGRVNPKNGDITYNQKFRGKATLTVDKSLTTAYMQLNSLTSEDSAVYFCAYDGYYDGMDFWGQGTSVTVSS
# VL: ENVLTQSPAIMSASPGEKVTMTCRANSSVSSNFLHWYQQKSGASPKLWISSTSNLAFGVPPRFSGSGSGTSYSLTISSVEAEDAATYYCHQYSGHPFTFGSGTKLEIKR
# modifications: vc-seco-DUBA linker-drug on the engineered cysteine at HC position 41 (Kabat); DAR 1.5
# B2: ADC3a (antibody, human IgG1, kappa, V domains shown)
# VH: QVQLVQSGAEVKKPGASVKVSCKASGYTFTDYYLNWVRQACGQGLEWMGLIFPGNDKTEYSEKFKGRVTLTTDTSISTAYMELSSLTSDDTALYYCSGGDYGGFVYWGQGTLVTVSS
# VL: DIQLTQSPSSLSASVGDRVTITCGASENIYGALNWYQQKPGKAPKLLIYGATNLADGVPSRFSGSGSGTDFTLTISSLQPEDFATYYCQNVLSSPLTFGPGTKVDIKR
# modifications: vc-seco-DUBA linker-drug on the engineered cysteine at HC position 41 (Kabat); DAR 1.9
# B3: ADC3c (antibody, human IgG1, kappa, V domains shown)
# VH: B2 VH
# VL: B2 VL with L4M, F83V, P100S, V104L, D105E
# modifications: vc-seco-DUBA linker-drug on the engineered cysteine at HC position 41 (Kabat); DAR 1.8
# B4: ADC3d (antibody, human IgG1, kappa, V domains shown)
# VH: B2 VH with V5Q, Q6E, L70M, T72R, I76T, A79V, T87R, D89E, L93V
# VL: B2 VL
# modifications: vc-seco-DUBA linker-drug on the engineered cysteine at HC position 41 (Kabat); DAR 1.8
# B5: ADC3e (antibody, human IgG1, kappa, V domains shown)
# VH: B2 VH with V5Q, Q6E, L70M, T72R, I76T, A79V, T87R, D89E, L93V
# VL: B2 VL with L4M, F83V, P100S, V104L, D105E
# modifications: vc-seco-DUBA linker-drug on the engineered cysteine at HC position 41 (Kabat); DAR 1.9
# B6: ADC3 (antibody, human IgG1, kappa, V domains shown)
# VH: QIQLQQSGPELVKPGASVKISCKASGYTFTDYYLNWVKQRCGQGLEWIGLIFPGNDKTEYSEKFKGKATLTVDTSSSTAYIQLSRLSSEDSAIYFCSGGDYGGFVYWGQGTLVTVSS
# VL: DIQMTQSPTSLSASVGETVTITCGASENIYGALNWYQRKQGKSPQLLIYGATNLADGMSSRFSGSGSGRQFSLKINSLHPDDVATYFCQNVLSSPLTFGSGTKLEIKR
# modifications: vc-seco-DUBA linker-drug on the engineered cysteine at HC position 41 (Kabat); DAR 1.1
# B7: ADC2a (antibody, human IgG1, kappa, V domains shown)
# VH: QVQLVQSGAELRKPGSSVKVSCRASGYVFPDYEMHWVRQACGQGLEWMGAFDPETGDTTYNQNFKGRVTIAADKSTSTAYMELRSLRSEDTAIYYCARDYKYLYYYAMDNWGQGTMVTVSS
# VL: EIVLTQSPSLLSASIGDRVTIPCTASSSITSSYLHWYQQKPGKAPKLLIYSTTNLASGVPSRFSGSGSGTEFTLTISSLQPEDFATYYCHQYRRSPLTFGGGTKLEIKR
# modifications: vc-seco-DUBA linker-drug on the engineered cysteine at HC position 41 (Kabat); DAR 1.7
# B8: ADC2b (antibody, human IgG1, kappa, V domains shown)
# VH: B7 VH with L11V, R12K, R23K, A71T, R84S, I93V, M116T
# VL: B7 VL with E1D, V3Q, L4M, L10S, I15V, P22T, E71D
# modifications: vc-seco-DUBA linker-drug on the engineered cysteine at HC position 41 (Kabat); DAR 1.7
# B9: ADC2c (antibody, human IgG1, kappa, V domains shown)
# VH: B7 VH with L11V, R12K, R23K, A71T, R84S, I93V, M116T
# VL: B7 VL
# modifications: vc-seco-DUBA linker-drug on the engineered cysteine at HC position 41 (Kabat); DAR 1.7
# Biological target: human c-Met (HGFR), full length, on the cell surface (human, UniProt P08581 25-1390)
# Sequence (P08581 25-1390 limits assumed): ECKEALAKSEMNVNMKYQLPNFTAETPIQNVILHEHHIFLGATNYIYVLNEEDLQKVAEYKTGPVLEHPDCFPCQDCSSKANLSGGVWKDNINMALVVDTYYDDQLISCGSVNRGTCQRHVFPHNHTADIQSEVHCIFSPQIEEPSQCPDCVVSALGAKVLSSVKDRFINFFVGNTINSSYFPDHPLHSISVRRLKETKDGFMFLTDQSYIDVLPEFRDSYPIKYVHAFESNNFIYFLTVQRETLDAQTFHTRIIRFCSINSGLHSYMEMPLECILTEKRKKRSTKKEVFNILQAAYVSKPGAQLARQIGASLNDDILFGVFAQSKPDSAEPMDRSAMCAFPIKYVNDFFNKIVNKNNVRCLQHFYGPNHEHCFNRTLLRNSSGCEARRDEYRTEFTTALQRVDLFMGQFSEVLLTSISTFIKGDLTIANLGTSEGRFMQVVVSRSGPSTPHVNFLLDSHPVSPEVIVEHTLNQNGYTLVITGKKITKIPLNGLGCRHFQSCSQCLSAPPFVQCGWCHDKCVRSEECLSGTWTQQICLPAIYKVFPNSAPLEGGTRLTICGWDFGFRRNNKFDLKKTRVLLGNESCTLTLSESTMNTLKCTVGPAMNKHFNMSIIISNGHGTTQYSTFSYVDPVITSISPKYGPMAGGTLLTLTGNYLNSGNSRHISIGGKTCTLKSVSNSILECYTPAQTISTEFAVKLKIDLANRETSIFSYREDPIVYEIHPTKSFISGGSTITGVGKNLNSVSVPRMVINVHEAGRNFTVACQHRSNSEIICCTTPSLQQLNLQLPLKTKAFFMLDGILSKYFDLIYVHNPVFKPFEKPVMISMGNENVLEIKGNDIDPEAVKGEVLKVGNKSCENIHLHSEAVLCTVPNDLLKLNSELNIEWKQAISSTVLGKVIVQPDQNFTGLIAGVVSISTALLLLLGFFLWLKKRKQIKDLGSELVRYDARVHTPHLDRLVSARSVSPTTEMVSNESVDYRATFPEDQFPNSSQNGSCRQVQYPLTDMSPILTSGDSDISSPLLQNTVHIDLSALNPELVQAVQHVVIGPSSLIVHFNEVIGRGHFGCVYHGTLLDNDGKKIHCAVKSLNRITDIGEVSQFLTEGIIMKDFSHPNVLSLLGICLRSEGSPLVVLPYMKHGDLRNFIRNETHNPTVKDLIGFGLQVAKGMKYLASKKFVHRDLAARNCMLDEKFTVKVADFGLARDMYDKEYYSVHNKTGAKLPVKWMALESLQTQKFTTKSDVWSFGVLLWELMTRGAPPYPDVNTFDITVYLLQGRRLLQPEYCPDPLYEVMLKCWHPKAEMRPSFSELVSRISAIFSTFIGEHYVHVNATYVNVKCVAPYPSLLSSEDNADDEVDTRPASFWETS
# Assay: cell-based or functional assay
Binder,"Efficacy (%), in vitro cytotoxicity, MKN-45, -HGF","Efficacy (%), in vitro cytotoxicity, NCI-H596, +HGF","Efficacy (%), in vitro cytotoxicity, NCI-H596, -HGF","Efficacy (%), in vitro cytotoxicity, PC-3, +HGF","Efficacy (%), in vitro cytotoxicity, PC-3, -HGF","IC50, in vitro cytotoxicity, MKN-45, -HGF","IC50, in vitro cytotoxicity, NCI-H596, +HGF","IC50, in vitro cytotoxicity, NCI-H596, -HGF","IC50, in vitro cytotoxicity, PC-3, +HGF","IC50, in vitro cytotoxicity, PC-3, -HGF"
B1,72%,29%,16%,42%,41%,0.73 nM,0.38 nM,> 10 nM,0.185 nM,0.069 nM
B2,85%,43%,3%,72%,73%,0.55 nM,2.14 nM,> 10 nM,~0.71 nM,
B3,84%,44%,10%,72%,73%,0.41 nM,1.89 nM,> 10 nM,~1.85 nM,
B4,82%,41%,5%,73%,74%,0.5 nM,2.17 nM,> 10 nM,~2.49 nM,
B5,81%,44%,11%,74%,74%,0.46 nM,2.52 nM,> 10 nM,~2.86 nM,
B6,50%,53%,16%,30%,24%,0.77 nM,1.86 nM,> 10 nM,0.224 nM,0.076 nM
B7,86%,26%,8%,76%,77%,0.44 nM,> 10 nM,> 10 nM,~0.74 nM,
B8,84%,34%,10%,75%,77%,0.4 nM,> 10 nM,> 10 nM,~2.46 nM,
B9,84%,32%,3%,75%,76%,0.41 nM,> 10 nM,> 10 nM,~1.97 nM,

# Same assay, conditions: not given
Binder,"IC50 1, in vitro cytotoxicity, PC-3, -HGF","IC50 2, in vitro cytotoxicity, PC-3, -HGF"
B2,0.05 nM,5.77 nM
B3,0.04 nM,112 nM
B4,0.04 nM,54 nM
B5,0.04 nM,541 nM
B7,0.06 nM,40 nM
B8,0.05 nM,100 nM
B9,0.08 nM,58 nM
